The source of these data is patent US20240002530A1 (LXZ SERVICES, published 2024).

This assay addresses T1, human prostate-specific membrane antigen (PSMA), on prostate cancer LNCaP and PC-3 cells (human, UniProt Q04609 1-750).
T1 construct: also called glutamate carboxypeptidase II; GCPII
As to the kind of experiment: flow cytometry on LNCaP cells. (In flow cytometry, cells or beads pass a laser one at a time.)

T1 sequence (Q04609 whole entry): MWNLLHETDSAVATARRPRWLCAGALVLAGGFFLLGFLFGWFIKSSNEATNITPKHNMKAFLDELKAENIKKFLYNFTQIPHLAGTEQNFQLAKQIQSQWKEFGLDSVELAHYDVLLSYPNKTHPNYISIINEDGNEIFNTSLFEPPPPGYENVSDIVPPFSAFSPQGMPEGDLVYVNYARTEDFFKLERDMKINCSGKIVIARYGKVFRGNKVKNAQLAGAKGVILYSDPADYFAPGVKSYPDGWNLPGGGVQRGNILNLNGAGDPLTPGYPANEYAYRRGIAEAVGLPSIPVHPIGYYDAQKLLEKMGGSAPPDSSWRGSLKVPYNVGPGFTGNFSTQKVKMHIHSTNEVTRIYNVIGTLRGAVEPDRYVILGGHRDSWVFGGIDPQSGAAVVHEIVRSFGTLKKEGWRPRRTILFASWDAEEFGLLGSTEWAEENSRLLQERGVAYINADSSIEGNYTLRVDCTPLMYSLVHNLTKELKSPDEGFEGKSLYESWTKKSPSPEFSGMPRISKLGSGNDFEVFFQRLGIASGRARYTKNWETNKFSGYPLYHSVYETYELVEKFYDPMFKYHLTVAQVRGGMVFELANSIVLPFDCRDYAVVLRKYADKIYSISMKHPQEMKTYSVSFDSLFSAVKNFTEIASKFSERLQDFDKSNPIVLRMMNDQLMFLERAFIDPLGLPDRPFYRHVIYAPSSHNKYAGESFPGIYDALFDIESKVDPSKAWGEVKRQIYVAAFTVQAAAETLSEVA

B1: Antibody No. 14 (antibody, V domains shown)
VH: VQLQESGPGLVQPSQSLSITCTVSGFSLTSYGVHWVRQSPGKGLEWLGVIWRGGSTDYNAAFMSRLSITKDNSKSQVFFKMNSLQADDTAIYYCAKKKYGNYGAMDYWGQGTTVTVSS
VL: DIVMTQSPKFLLVSAGDRVTITCKASQSVSNDVAWYQQKPGQSPKLLIYYASNRYTGVPDRFTGSGYGTDFTFTISTVQAEDLAVYFCQQDYSSPYTFGGGTKLELK
notes: Mouse hybridoma monoclonal IgG from ascites; also called PSMA-McAb clone 14
As for B1, the binding result is listed as “binds”.

B2: Antibody No. 12 (antibody, V domains shown)
VH: VQLQESGPGLVKPSQSLSLTCTVTGYSITSDYAWNWIRQFPGNKLEWMGYISYSGSTSYNPSLKSRISITRDTSKNQFFLHLNSVTTEDTATYYCARQTYYYGSSPFTYWGQGTTVTVSS
VL: DIVMTQTPSSLTVTAGEKVTMRCKSSQSLLNSGNQKSYLTWYQQKPGQPPKLLIYWASTRESGVPDRFTGSGSGTDFTLTISSVQAEDLAVYYCQNDYSYPLTFGAGTKLELK
notes: Mouse hybridoma monoclonal IgG from ascites; also called PSMA-McAb clone 12
Consider B2, for which the binding result is given as “binds”.

B3: Antibody No. 18 (antibody, V domains shown)
VH: VQLEESGDDLVKPGASVKLSCKASGHTFTSYWINWIKQRPGQGLEWIGRIAPGSGSTYYNEMFKGKATLTVDTSSSTAYIQLSSLSSEDSAVYFCARNLKYGNYGFAYWGQGTTVTVSS
VL: DIVMTQTPSSLTVTAGEKVTMSCKSSQSLLNSGNQKNYLTWYQQKPGQPPKLLIYWASTRESGVPDRFTGSGSGTDFTLTISSVQAEDLAVYYCQNDYSYPLTFGAGTKLEIK
notes: Mouse hybridoma monoclonal IgG from ascites; also called PSMA-McAb clone 18
Regarding B3, the binding result is “binds”.
